Biological target: the molecule itself
Assay: SEC-MALS

B1: D8 Δ262 construct (amino acids 1–261, lacking Cys 262) (domain or fragment)
chain: MPQQLSPINIETKKAISNARLKPLDIHYNESKPTTIQNTGKLVRINFKGGYISGGFLPNEYVLSSLHIYWGKEDDYGSNHLIDVYKYSGEINLVHWNKKKYSSYEEAKKHDDGLIIISIFLQVLDHKNVYFQKIVNQLDSIRSANTSAPFDSVFYLDNLLPSKLDYFTYLGTTINHSADAVWIIFPTPINIHSDQLSKFRTLLSSSNHDGKPHYITENYRNPYKLNDDTQVYYSGEIIRAATTSPARENYFMRWLSDLRET
  stoichiometry N: 6

Source: paper PMC4256255 (PLoS Pathogens, 2014)
